{"source": "paper doi:10.1101/2020.06.06.138156", "about": "(bioRxiv, 2020)", "binders": {"B1": {"name": "FLAG-SETD2 SHI (2114-2263) (domain or fragment)", "chain": "NKLSTEERRKLFEQEVAQREAQKQQQQMQNLGMTSPLPYDSLGYNAPHHPFAGYPPGYPMQAYVDPSNPNAGKVLLPTPSMDPVCSPAPYDHAQPLVGHSTEPLSAPPPVPVVPHVAAPVEVSSSQYVAQSDGVVHQDSSVAVLPVPAPG"}}, "biological_target": "T1, GST-His-hnRNP L RRM2 (162-321) (human, UniProt P14866 162-321)", "T1 sequence": "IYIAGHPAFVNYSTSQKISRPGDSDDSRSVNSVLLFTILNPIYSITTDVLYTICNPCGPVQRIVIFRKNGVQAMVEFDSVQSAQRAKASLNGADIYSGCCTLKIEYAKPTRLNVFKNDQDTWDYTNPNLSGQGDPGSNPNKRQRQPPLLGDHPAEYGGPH", "assay": "pull-down", "data": [{"binder": "B1", "values": [{"measurement": "binding result", "value": "binds"}]}]}
